Reference: patent US20080026992

Key:
[1] = tested on: p27Kip1, recombinant, unphosphorylated
[2] = tested on: p27Kip1, recombinant, tyrosine-phosphorylated in vitro by Abl kinase (Tyr-88 phosphorylated p27)
[3] = tested on: mutant p27 Y88F, phosphorylated on Tyr-89 by recombinant Abl kinase
Sequence of mutant p27 Y88F, phosphorylated on Tyr-89 by recombinant Abl kinase (chain, as listed by the source Y88F): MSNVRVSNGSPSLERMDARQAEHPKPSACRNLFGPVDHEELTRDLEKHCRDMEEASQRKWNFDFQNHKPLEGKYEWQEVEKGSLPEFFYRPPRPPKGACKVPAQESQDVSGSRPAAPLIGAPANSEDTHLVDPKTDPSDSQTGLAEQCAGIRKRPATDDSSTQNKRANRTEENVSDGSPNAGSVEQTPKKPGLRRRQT

CDK2/cyclin A complex, recombinant, purified from Sf9 insect cells
phosphorylation of p27 by CDK2 within p27/CDK2/cyclin A complexes (32P incorporation) [1]: As expected, p27 was poorly phosphorylated due to the absence of free kinase | phosphorylation of Thr-187 of p27 in CDK2 kinase complexes (Western blot with a phospho-threonine 187 specific antibody) [2]: Phosphorylation of Thr-187 was indeed strongly enhanced if Tyr-88 phosphorylated p27 was incubated in CDK2 kinase complexes (FIG. 5b) | phosphorylation of p27 by CDK2 within p27/CDK2/cyclin A complexes (32P incorporation) [2]: the tyrosine phosphorylated protein was a good substrate for CDK2 phosphorylation (FIG. 5a) | phosphorylation of Thr-187 of p27 in CDK2 kinase complexes (Western blot with a phospho-threonine 187 specific antibody) [3]: a mutant phosphorylated on Tyr-89 is not a good substrate for CDK2-dependent phosphorylation (FIG. 5b)
